For the test, the target named is CTD (C-terminal domain) of SOQ1 (SUPPRESSOR OF QUENCHING1), recombinant (Arabidopsis thaliana). The test is described as follows: MST.

By Kd is commonly meant the equilibrium constant for the complex coming apart.

On to “Trx-like domain of SOQ1 (SUPPRESSOR OF QUENCHING1), recombinant (domain or fragment)”, for which the Kd worked out at 8.76 µM.

The record behind these values is publication doi:10.1101/2021.03.16.435614.
